Laboratory results as given in article PMC11435836 (Vaccines, 2024).

Target: the molecule itself
Experiment: SEC; Superose 6 Increase 10/300 GL; single ENC particles eluted at 11-12 mL, highly aggregated particles at 8-9 mL

B1: encapsulin (ENC) from Thermotoga maritima (natural protein, UniProt Q9WZP2 1-264, looked up)
chain: MEFLKRSFAPLTEKQWQEIDNRAREIFKTQLYGRKFVDVEGPYGWEYAAHPLGEVEVLSDENEVVKWGLRKSLPLIELRATFTLDLWELDNLERGKPNVDLSSLEETVRKVAEFEDEVIFRGCEKSGVKGLLSFEERKIECGSTPKDLLEAIVRALSIFSKDGIEGPYTLVINTDRWINFLKEEAGHYPLEKRVEECLRGGKIITTPRIEDALVVSERGGDFKLILGQDLSIGYEDREKDAVRLFITETFTFQVVNPEALILLK
notes: also called ENC NPs; ENC PNPs; copies: 60
B1: binds.
